{"source": "paper PMC5824358", "target": "T1, 65K C-RRM WT untagged (UniProt Q96LT9 381-516)", "T1 sequence": "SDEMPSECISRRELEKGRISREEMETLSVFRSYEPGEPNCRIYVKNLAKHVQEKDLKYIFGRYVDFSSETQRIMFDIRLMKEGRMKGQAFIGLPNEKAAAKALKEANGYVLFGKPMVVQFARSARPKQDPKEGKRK", "experiment": "NMR chemical shift perturbation", "data": [{"binder": "CCCGCCUACUUUGCGGG (structured_RNA)", "note": "[U12 oligo]", "values": [{"measurement": "binding result", "result": "binds"}]}]}
